# ± gives the uncertainty stated by the source.
# Assay: protein stability index of a GFP-peptide fusion (yeast GPS) (PSI 1-4); higher = more stable; sorted into four equal gates, so the index is relative within each strain
# In short: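 Tiled 17-residue peptides from yeast proteins were fused downstream of GFP on a plasmid that also expresses Cherry, and the pooled library was carried in yeast. Mid-log cultures grown in leucine-free medium were sorted into four equal gates by GFP/Cherry fluorescence ratio. Plasmids from each gate were PCR-amplified and Illumina-sequenced, and reads were assigned to strains by barcodes. Each peptide's protein stability index is the sum, over gates, of the gate's read frequency multiplied by its gate number.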
Sequence,protein stability index (doa10∆),protein stability index (pdr5∆),protein stability index (san1∆),protein stability index (ubr1∆)
SDIPKTTVQVAEEAIVN [PRE4],2.92 ± 0.12,2.72 ± 0.09,1.81 ± 0.28,2.54 ± 0.091
WSFEEVEVKDASLVDYV [RPS5],1.32 ± 0.089,1.14 ± 0.06,1.22 ± 0.14,1.17 ± 0.056
HIILDTISECNLYDDVK [MED1],2.49 ± 0.073,3.18 ± 0.087,3.19 ± 0.067,3 ± 0.11
LSYYVEETNVDIGVLEE [SMC4],,3.38 ± 0.22,3.62 ± 0.072,3.5 ± 0.1
MSEEQDPLLAGLGETSG [RPT4],2.91 ± 0.24,3.55 ± 0.17,3.57 ± 0.17,3.25 ± 0.15
ECGTGTTIHTFNRKENP [RPN14],2.11 ± 0.18,2.5 ± 0.1,2.21 ± 0.12,2.05 ± 0.13
KRVHTLLTLIVREYEQP [ISW2],3.28 ± 0.23,2.55 ± 0.15,3.06 ± 0.15,3.46 ± 0.18
NDRKQTTVSNDLENSPL [SSN2],2.98 ± 0.079,3.11 ± 0.056,3.13 ± 0.041,3.08 ± 0.038
WKIPQNDIPQTESPLKT [SSN2],2.71 ± 0.082,2.23 ± 0.058,2.13 ± 0.08,2.38 ± 0.039
LLSENRSEKSTTNAQTK [SRP54],2.86 ± 0.15,2.84 ± 0.099,2.88 ± 0.09,2.92 ± 0.064
EELRKHAQKRVSNASAR [SKI6],3.25 ± 0.23,3.22 ± 0.095,3.01 ± 0.11,2.89 ± 0.073
EFLPLSLHILMIFWNDI [SRB8],1.36 ± 0.037,1.34 ± 0.04,1.35 ± 0.062,1.89 ± 0.036
AVTEREVLVTPGLEFLD [MCD1],2.85 ± 0.14,3.15 ± 0.15,2.75 ± 0.089,2.94 ± 0.13
LLSLNSVRSLQKRIENG [SRP68],2.13 ± 0.069,1.65 ± 0.063,2.1 ± 0.091,2.25 ± 0.078
YQVDEDVKSSLSKVFSD [YJL039C/NUP192],3.23 ± 0.17,3.42 ± 0.14,3.33 ± 0.17,2.93 ± 0.22
YIKNILEAPVKSIENPT [YLR335W/NUP2],2.38 ± 0.061,2.33 ± 0.063,2.19 ± 0.084,2.13 ± 0.057
ITGEDEVLCSRIIEKSV [RRP45],2 ± 0.051,2.45 ± 0.054,2.1 ± 0.098,1.89 ± 0.059
DLLHPTAASEARKHKLK [RPS27A],2.29 ± 0.1,3.11 ± 0.068,2.53 ± 0.11,3.07 ± 0.072
KLYKKIAKFERSEEEVT [YIL149C/MLP2],3.25 ± 0.1,3.19 ± 0.078,3.17 ± 0.064,3.3 ± 0.078
TVVGNASFGKNLQIRQL [DSN1],,2.7 ± 0.17,,2.97 ± 0.2
YRKTEGIFEKAKAKAVT [YMR153W/NUP53],2.56 ± 0.09,2.54 ± 0.12,2.65 ± 0.13,2.48 ± 0.075
GQLGLDDNDVPGPLPDT [YLR018C/POM34],3.27 ± 0.2,2.94 ± 0.14,2.37 ± 0.23,
KFKKEKFDIIIVDTSGR [SRP54],2.84 ± 0.046,3.01 ± 0.036,2.95 ± 0.034,3.1 ± 0.04
TEENIKGETNSEISIID [RRP45],2.96 ± 0.07,3.16 ± 0.064,3.3 ± 0.055,3.22 ± 0.053
GSNQQSSTGGGLFGNKP [YGR119C/NUP57],3.36 ± 0.093,3.28 ± 0.084,3.23 ± 0.058,3.28 ± 0.042
IFGGAGGVPTTSFGQPQ [YOR098C/NUP1],1.57 ± 0.061,1.58 ± 0.074,1.55 ± 0.11,1.4 ± 0.053
NSISSQPASYHSVQETN [SSN2],2.22 ± 0.049,2.54 ± 0.058,2.88 ± 0.068,2.69 ± 0.052

# From the supplement of paper PMC9732359
